The target in assay [1] is T1, human Integrin Associated Protein (IAP) expressed on mouse leukemia cell line L1210 (human, UniProt Q08722 19-323).
T1 construct: whole, on cells; also called human IAP; hIAP/L1210
Put plainly: flow cytometry on L1210 cells expressing human IAP; COS7 culture supernatant; mouse anti-FLAG antibody, then FITC-labeled anti-mouse IgG antibody. The protocol:
Flow cytometry was performed using the aforementioned COS7 cells culture supernatant to measure the binding to the antigen. The culture supernatant of the COS7 cells expressing the reconstructed single chain Fv of antibody MABL-2 or the culture supernatant of COS7 cells transformed with pCHO1 vector as a control was added to 2×10⁵ cells of the mouse leukemia cell line L1210 expressing human Integrin Associated Protein (IAP) or the cell line L1210 transformed with pCOS1 as a control. After incubating on ice and washing, the mouse anti-FLAG antibody (SIGMA) was added. Then the cells were incubated and washed. Then, the FITC labeled anti-mouse IgG antibody (BECTON DICKINSON) was added thereto and the cells were incubated and washed again. Subsequently, the fluorescence intensity was measured using the FACScan apparatus (BECTON DICKINSON).

Assay [2] concerns the target T2, secretion-type human IAP antigen (human, UniProt Q08722 19-142, limits assumed).
T2 construct: captured on plates coated with anti-FLAG antibody
Kind of assay: competitive ELISA: secretion-type human IAP captured on anti-FLAG antibody; competitor biotinized MABL-2 antibody at 100 ng/ml; serial dilutions of COS7 culture supernatant (x axis: dilution ratio of CM, no concentration unit). As for the experimental part: The binding activity of the reconstructed single chain Fv of antibody MABL-2 was measured based on the inhibiting activity against the binding of mouse monoclonal antibodies to the antigen.
The anti-FLAG antibody adjusted to 1 μg/ml was added to each well on 96-well plate and incubated at 37° C. for 2 hours. After washing, blocking was performed with 1% BSA-PBS. After incubating and washing at a room temperature, the culture supernatant of COS7 cells into which the secretion-type human IAP antigen gene (SEQ ID No. 26) had been introduced was diluted with PBS into twofold volume and added to each well. After incubating and washing at a room temperature, a mixture of 50 μl of the biotinized MABL-2 antibody adjusted to 100 ng/ml and 50 μl of sequentially diluted supernatant of the COS7 cells expressing the reconstructed single chain Fv of antibody MABL-2 were added into each well. After incubating and washing at a room temperature, the alkaline phosphatase-conjugated streptoavidin (Zymed) was added into each well. After incubating and washing at a room temperature, the substrate solution (SIGMA) was added and absorbance of the reaction mixture in each well was measured at 405 nm.
(ELISA stands for enzyme-linked immunosorbent assay.)

T1 sequence (Q08722 19-323): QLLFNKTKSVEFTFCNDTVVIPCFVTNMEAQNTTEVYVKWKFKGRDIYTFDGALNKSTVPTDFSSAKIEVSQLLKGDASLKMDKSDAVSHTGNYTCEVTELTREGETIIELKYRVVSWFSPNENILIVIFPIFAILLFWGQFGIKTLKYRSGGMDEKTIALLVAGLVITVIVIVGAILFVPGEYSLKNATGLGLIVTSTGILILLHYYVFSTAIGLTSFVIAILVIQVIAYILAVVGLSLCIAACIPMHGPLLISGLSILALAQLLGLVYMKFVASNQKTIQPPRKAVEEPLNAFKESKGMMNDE
T2 sequence (Q08722 other isoform, or with tags, fused parts or gaps limits assumed): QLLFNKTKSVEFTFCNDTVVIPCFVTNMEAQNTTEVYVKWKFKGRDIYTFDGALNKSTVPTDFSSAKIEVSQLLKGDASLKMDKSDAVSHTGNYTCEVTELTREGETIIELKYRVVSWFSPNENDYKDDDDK

B1: reconstructed single chain Fv of antibody MABL-2 (plasmid pCHOM2), culture supernatant of COS7 cells (scFv)
scFv: QVQLQQSGPELVKPGASVKMSCKASGYTFANHVIHWVKQKPGQGLEWIGYIYPYNDGTKYNEKFKDKATLTSDKSSTTAYMDLSSLASEDSAVYYCARGGYYTYDDWGQGTTLTVSSGGGGSGGGGSGGGGSDVVMTQSPLSLPVSLGDQASISCRSSQSLVHSNGKTYLHWYLQKPGQSPKLLIYKVSNRFSGVPDRFSGSGSVTDFTLMISRVEAEDLGVYFCSQSTHVPYTFGGGTKLEIKDYKDDDDK
notes: VH-(Gly4Ser)3-VL-FLAG; Unfractionated supernatant (monomer and dimer not separated); also called MABL2-scFv; MABL2-scFv/COS7
For B1, the binding result in assay [1] and in assay [2] was “binds” throughout.

For the origin of these results see patent US20040091475A1 (Chugai, published 2004).
